The target in this assay is PP2A:B55 holoenzyme (PP2Aa, B55, PP2Ac) (UniProt P30153).
Chain of PP2A:B55 holoenzyme (PP2Aa, B55, PP2Ac) (P30153 9-589, chain 1 of 3): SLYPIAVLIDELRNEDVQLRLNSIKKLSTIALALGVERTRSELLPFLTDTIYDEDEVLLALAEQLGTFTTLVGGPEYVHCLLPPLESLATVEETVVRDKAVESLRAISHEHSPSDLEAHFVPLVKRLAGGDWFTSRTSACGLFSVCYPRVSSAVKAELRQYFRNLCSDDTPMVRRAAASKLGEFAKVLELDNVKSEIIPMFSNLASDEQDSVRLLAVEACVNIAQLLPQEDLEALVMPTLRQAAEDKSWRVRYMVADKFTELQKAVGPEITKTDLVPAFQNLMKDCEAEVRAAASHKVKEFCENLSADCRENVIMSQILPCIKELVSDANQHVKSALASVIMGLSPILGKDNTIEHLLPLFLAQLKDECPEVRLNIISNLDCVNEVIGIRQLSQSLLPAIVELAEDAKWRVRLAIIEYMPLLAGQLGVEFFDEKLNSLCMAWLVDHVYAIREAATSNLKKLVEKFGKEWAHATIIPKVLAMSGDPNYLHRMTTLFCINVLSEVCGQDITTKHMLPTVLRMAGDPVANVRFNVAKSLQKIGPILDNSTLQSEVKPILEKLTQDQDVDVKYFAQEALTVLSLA
Chain of PP2A:B55 holoenzyme (PP2Aa, B55, PP2Ac) (P63151 whole entry, chain 2 of 3, further chain): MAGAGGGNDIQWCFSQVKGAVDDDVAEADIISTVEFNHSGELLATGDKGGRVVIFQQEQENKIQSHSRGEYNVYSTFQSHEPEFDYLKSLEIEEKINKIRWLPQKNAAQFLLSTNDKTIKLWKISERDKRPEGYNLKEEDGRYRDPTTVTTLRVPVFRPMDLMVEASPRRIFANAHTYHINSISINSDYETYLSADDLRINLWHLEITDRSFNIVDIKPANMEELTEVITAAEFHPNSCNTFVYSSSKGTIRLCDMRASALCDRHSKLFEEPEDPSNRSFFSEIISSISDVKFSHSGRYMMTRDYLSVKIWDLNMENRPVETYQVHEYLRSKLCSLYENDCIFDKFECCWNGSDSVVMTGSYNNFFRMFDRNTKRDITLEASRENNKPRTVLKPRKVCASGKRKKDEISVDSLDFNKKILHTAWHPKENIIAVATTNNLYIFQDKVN
Chain of PP2A:B55 holoenzyme (PP2Aa, B55, PP2Ac) (P67775 whole entry, chain 3 of 3, further chain): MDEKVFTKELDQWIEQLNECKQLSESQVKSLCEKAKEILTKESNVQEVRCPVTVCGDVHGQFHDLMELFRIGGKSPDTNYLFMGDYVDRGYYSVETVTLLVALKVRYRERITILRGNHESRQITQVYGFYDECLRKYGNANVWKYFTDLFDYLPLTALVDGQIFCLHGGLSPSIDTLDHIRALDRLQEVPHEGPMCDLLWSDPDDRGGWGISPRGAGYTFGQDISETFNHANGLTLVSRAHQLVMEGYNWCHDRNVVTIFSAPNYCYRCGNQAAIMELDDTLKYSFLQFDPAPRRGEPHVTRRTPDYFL

In turn, “FAM122AID E104A/S120C (domain or fragment)” returned an inhibition of PP2A:B55 phosphatase activity (DiFMUP), against wild type of 2 fold. Next, FAM122AID R105L (domain or fragment): 11 fold.

Consider FAM122AID V107G (domain or fragment), for which the inhibition of PP2A:B55 phosphatase activity (DiFMUP), against wild type is 6 fold.

The values are drawn from article PMC10765524.
